Target: Insulin Aspart (human)
Test: hexamer dissociation kinetics

Hexamer t½ (dissociation of the Zn2+-hexamer): 42.7 s
Substance: Insulin Aspart (natural protein)

Source: publication PMC5812673
